Results on two molecules are retold here after PMC3648612 (Nature structural & molecular biology, 2013).

Experiment [1] concerns the target T1, Med12 (Srb8), S. cerevisiae (S. cerevisiae, UniProt P25648 1-1427).
T1 sequence: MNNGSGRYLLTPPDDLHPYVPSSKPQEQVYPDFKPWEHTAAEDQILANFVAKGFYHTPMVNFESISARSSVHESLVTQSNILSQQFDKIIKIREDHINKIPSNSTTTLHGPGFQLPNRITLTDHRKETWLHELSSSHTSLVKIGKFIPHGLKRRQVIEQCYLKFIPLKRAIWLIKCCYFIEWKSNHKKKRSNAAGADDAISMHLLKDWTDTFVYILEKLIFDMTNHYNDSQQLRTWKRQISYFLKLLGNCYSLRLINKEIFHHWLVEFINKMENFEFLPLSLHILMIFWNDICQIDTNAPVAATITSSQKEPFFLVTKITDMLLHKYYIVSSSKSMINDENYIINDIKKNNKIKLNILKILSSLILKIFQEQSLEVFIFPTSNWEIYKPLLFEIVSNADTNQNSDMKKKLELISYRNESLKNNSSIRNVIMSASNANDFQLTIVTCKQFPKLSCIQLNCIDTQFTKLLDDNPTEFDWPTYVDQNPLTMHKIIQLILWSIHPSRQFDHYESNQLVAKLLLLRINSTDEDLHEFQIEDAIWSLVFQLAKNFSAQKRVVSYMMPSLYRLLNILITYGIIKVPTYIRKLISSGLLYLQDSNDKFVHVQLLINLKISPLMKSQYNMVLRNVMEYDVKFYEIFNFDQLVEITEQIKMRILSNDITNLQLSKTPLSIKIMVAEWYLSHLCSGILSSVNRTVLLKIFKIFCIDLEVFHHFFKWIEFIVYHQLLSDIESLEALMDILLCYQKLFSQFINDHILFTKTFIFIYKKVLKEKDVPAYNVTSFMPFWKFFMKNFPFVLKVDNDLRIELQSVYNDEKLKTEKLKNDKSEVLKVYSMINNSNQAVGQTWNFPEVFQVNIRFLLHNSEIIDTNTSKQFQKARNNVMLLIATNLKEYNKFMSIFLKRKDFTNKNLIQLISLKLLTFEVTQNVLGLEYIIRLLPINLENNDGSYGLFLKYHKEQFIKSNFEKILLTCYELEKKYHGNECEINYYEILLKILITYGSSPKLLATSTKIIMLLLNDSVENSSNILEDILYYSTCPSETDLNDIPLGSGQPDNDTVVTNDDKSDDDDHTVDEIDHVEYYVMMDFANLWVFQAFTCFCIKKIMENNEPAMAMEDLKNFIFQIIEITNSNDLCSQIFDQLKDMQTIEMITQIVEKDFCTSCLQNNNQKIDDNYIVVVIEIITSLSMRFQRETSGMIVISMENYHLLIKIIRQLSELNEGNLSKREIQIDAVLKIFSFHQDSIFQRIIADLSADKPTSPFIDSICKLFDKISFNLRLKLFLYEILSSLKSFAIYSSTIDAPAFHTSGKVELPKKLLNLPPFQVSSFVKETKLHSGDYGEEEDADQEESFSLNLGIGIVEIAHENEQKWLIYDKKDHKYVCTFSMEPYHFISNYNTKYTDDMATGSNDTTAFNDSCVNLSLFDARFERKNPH
In words: cryo-EM structure.

The target of experiment [2] is T2, Cdk8 (Srb10) with a C-terminal TAP tag, S. cerevisiae (S. cerevisiae, UniProt P39073 1-555).
T2 sequence: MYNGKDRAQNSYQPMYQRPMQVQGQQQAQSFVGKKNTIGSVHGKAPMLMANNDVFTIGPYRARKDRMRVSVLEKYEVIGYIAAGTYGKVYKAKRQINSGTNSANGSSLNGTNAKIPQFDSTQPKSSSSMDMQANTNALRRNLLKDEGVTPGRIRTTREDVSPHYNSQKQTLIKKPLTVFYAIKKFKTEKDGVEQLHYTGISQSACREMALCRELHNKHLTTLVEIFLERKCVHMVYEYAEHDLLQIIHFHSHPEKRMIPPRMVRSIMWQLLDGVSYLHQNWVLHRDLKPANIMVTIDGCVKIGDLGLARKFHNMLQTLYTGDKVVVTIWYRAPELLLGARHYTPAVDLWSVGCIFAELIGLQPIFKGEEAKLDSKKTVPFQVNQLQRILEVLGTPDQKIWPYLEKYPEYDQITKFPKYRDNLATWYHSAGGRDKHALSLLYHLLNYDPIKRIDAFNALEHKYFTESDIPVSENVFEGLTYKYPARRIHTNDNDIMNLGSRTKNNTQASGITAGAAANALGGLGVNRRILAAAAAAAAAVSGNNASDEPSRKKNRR
In words: tandem affinity purification.

B1: CycC (Srb11), S. cerevisiae (natural protein)
chain: MSGSFWTSTQRHHWQYTKASLAKERQKLWLLECQLFPQGLNIVMDSKQNGIEQSITKNIPITHRDLHYDKDYNLRIYCYFLIMKLGRRLNIRQYALATAHIYLSRFLIKASVREINLYMLVTTCVYLACKVEECPQYIRTLVSEARTLWPEFIPPDPTKVTEFEFYLLEELESYLIVHHPYQSLKQIVQVLKQPPFQITLSSDDLQNCWSLINDSYINDVHLLYPPHIIAVACLFITISIHGKPTKGSSLASAASEAIRDPKNSSSPVQIAFNRFMAESLVDLEEVMDTIQEQITLYDHWDKYHEQWIKFLLHTLYLRPASAI
Turning to B1, the binding result in experiment [1] and in experiment [2] was “binds” each time.

B2: Med13 (Srb9), S. cerevisiae (natural protein)
chain: MSSDASTYRLEDVLSSFYRVEKIKKINYHQYISKAQNDQWSIQMEFMLRKQDPKTLVALLSRDLWCFSINDDPVPTPPAIEHKPVSPDKIGTFTADYSKPNLPPHYALFLKALRRKIYINLALGSHNKLIQFGNACISLSGVPNYLVQLEPHLFVNGDLTVSLCAKNMGLVPMKEENLEESFLSKHALYLAPSGIRMHLAPASKQGYLITPPKHTELLLTTLSVSHGINLQNKKNLKWVAVVPDLGHLNGHTPTIASYLTPLLEAKKLVWPLHLIFAQPVADIENSTSGDPSEFHCLQDALDAIDDFIQLKQTAAYRTPGSSGVLSSNIAGTNPLSSDGAYTEQFQHYKNNSISSQPASYHSVQETNKISPKDFSPNFTGIDKLMLSPSDQFAPAFLNTPNNNINENELFNDRKQTTVSNDLENSPLKTELEANGRSLEKVNNSVSKTGSVDTLHNKEGTLEQREQNENLPSDKSDSMVDKELFGEDEDEDLFGDSNKSNSTNESNKSISDEITEDMFEMSDEEENNNNKSINKNNKEMHTDLGKDIPFFPSSEKPNIRTMSGTTKRLNGKRKYLDIPIDEMTLPTSPLYMDPGAPLPVETPRDRRKSVFAPLNFNPIIENNVDNKYKSGGKFSFSPLQKEEALNFDISMADLSSSEEEEDEEENGSSDEDLKSLNVRDDMKPSDNISTNTNIHEPQYINYSSIPSLQDSIIKQENFNSVNDANITSNKEGFNSIWKIPQNDIPQTESPLKTVDSSIQPIESNIKMTLEDNNVTSNPSEFTPNMVNSEISNLPKDKSGIPEFTPADPNLSFESSSSLPFLLRHMPLASIPDIFITPTPVVTISEKEQDILDLIAEQVVTDYNILGNLGIPKIAYRGVKDCQEGLITTTMLQLFSTFDRLNGNDTISKFYNMKQPYVFVKKHHELIKVKHDSQPFIKFLNFRPPNGIKNFKSLLLSSSFKEDCLSFAPTLSQTYINQELGFCELLKLTNEDPPGLMYLKAFDKNKLLLLAAQIVSYCSNNKNSIKNVPPILIILPLDNATLTELVDKANIFQVIKNEVCAKMPNIELYLKVIPMDFIRNVLVTVDQYVNVAISIYNMLPPKSVKFTHIAHTLPEKVNFRTMQQQQMQQQQQQQQQQQNNSTGSSSIIYYDSYIHLAYSRSVDKEWVFAALSDSYGQGSMTKTWYVGNSRGKFDDACNQIWNIALNLASKKFGKICLILTRLNGILPDDELMNWRRLSGRNIHLAVVCVDDNSKISFIDEDKLYPSFKPIYKDTRFGGRMDMTRLYDYEIRDIDQDIHGIVFQHPFPLAHSQHRCAIRSGALIKFKKCDGDTVWDKFAVNLLNCPHSDSTQLLETILEEFRNLAALNVWYGLSDGEDGHIPWHILAVKKMMNTLVHTRVKIANTSAATVHTATSSSIILSDK
Regarding B2, the binding result in experiment [1] is listed as “binds”.
